We go through nine compounds from article doi:10.1101/2023.07.10.548257 (bioRxiv, 2024).

Assay [1] deals with T1, SHP2 N-SH2^T42A domain (Homo sapiens, UniProt Q06124, T42A).
T1 construct: SHP2 SH2 domains were cloned into a His6-SUMO-SH2-Avi construct; His6-SUMO (N, cleaved yes); made in house; host or cells: E. coli C43(DE3), co-expressed with BirA
T1 sequence (Q06124 6-102 T42A limits assumed): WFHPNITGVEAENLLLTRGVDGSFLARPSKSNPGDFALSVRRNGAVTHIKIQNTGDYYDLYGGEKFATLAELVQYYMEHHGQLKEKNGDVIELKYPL
In words: Direct fluorescence polarization binding, N-SH2 T42A. As to conditions: direct fluorescence polarization with fluorescent peptide. The method, then:
Fluorescence polarization binding assays
SH2 domains were thawed in room temperature water and their absorbance at 280 nm was measured to determine concentration. SH2 domains were serially diluted 15 times in assay buffer (60 mM HEPES pH 7.2, 75 mM KCl, 75 mM NaCl,1 mM EDTA, 0.05% Tween-20), with a 2x starting concentrations generally in the low micromolar range. […] The […]
fluorescent peptide was diluted to 2x the desired concentration and mixed in 1:1 ratio with the different concentrations of SH2 domain (specific fluorescent peptide concentrations can be found in Table S2).
The mixture was transferred to a black 96-well plate and incubated for 15 minutes at room temperature. Parallel and perpendicular measurements were taken using the 485/30 polarization cube on the BioTek Neo2 Plate Reader. Data was analyzed and fitted to a quadratic binding equation to determine the KD for the fluorescent peptide, according to previously established methods (2, 3). […]
P-values comparing affinities for different SH2 domains were calculated using an unpaired Welch’s t-test. […]
Right before starting the plate reader assay, 30 μL SHP2 was added to each well a Supplementary Information - page 4 of 18
On the technique in general: Polarisation of emitted light reports the rotation of a fluorescent probe.

Assay [2] concerns the target SHP2 N-SH2 domain, wild type (N-SH2-Avi-biotin) (UniProt Q06124). Briefly: peptide display screen (pTyr-Var Library). The settings on record: N = 2 independent library transformations and screens, read off a plot.
The target in assay [3] is T2, SHP2 C-SH2^E139D domain (Homo sapiens, UniProt Q06124, E139D).
T2 construct: SHP2 SH2 domains were cloned into a His6-SUMO-SH2-Avi construct; His6-SUMO (N, cleaved yes); made in house; host or cells: E. coli C43(DE3), co-expressed with BirA
T2 sequence (Q06124 112-216 E139D limits assumed): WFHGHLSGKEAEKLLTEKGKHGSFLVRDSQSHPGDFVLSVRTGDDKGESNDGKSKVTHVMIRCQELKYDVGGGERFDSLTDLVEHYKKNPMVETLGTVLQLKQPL
Briefly: SH2 specificity profiling by bacterial peptide display (Human pTyr and pTyr-Var Libraries), C-SH2 E139D. It counts as binding. The method, then: (§1) Next, we characterized the sequence specificity of the SH2 mutants relative to their wild-type counterparts in a large-scale, unbiased screen. […] For each peptide in a library, an enrichment score is calculated from the deep sequencing data as the frequency of the peptide in the SH2-enriched sample divided by the frequency of the peptide in the unenriched input sample ([34]). For this study, we used two largely non-overlapping libraries, both encoding known human phosphosites. […] The Human pTyr Library consists of 1,916 sequences derived from known phosphorylation sites in the human proteome, along with another 617 control mutants ([35]). […]
(§2) SH2 specificity profiling using bacterial peptide display
(§3) Preparation of bacterial cells
(§4) Electrocompetent MC1061 cells were transformed with ~100 ng of the respective library. After 1 hour recovery in 1 mL LB, cells were further diluted into 250 mL LB + 0.1% chloramphenicol. 1.8 mL of overnight culture was used to inoculate 100 mL LB + 0.1% chloramphenicol, and grown until OD600 reached 0.5. 20 mL of cell suspension was induced at 25 °C using a final concentration of 0.4% arabinose until the OD600 ~ 1 (after approximately 4 hours). The cells were spun down at 4000 rpm for 15 minutes, and the pellet was resuspended in PBS so that the OD600 ~1.5. The cells were stored in the fridge and used within a week.
(§5) For each sample, 75 μL of Dynabeads™ FlowComp™ Flexi Kit were washed twice in 1 mL SH2 buffer (50 mM HEPES pH 7.5, 150 mM NaCl, 1 mM TCEP, and 0.2% BSA) on a magnetic rack.
(§6) The beads were then resuspended in 75 μL of SH2 buffer. SH2 domains were thawed quickly and 20 μM of protein was added to the beads. SH2 buffer was added up to 150 μL, and the suspension was incubated for 1 hour at 4 °C while rotating. After 1 hour, the suspension was placed on a magnetic rack and washed twice with 1 mL SH2 buffer.
(§7) Preparing the phosphorylated cells
(§8) 150 μL of prepared cells per sample were spun down for 4000 rpm for 5 minutes at 4 °C.
(§9) Kinase screen buffer was prepared (50 mM Tris, 10 mM magnesium chloride, 150 mM sodium chloride; add 2 mM sodium orthovanadate and 1 mM TCEP fresh) and the cells of each sample were resuspended in 100 μL kinase screen buffer. Kinases c-Src, c-Abl, AncSZ, Eph1B were added to a final concentration of 2.5 µM each, creatine phosphate was added to a final concentration of 5 mM, and phosphokinase was added to a final concentration of 50 µg/mL. The suspension was incubated at 37 °C for 5 minutes before ATP was added to a final concentration of 1 mM. This mixture was incubated at 37 °C for 3 hours. After 3 hours, EDTA was added to a final concentration of 25 mM to quench the reaction. The input library control sample was not phosphorylated. These cells were spun down at 4000 rpm for 15 minutes at 4 °C. The cells were then resuspended in 100 µL of SH2 buffer + 0.1% BSA. Phosphorylation of the cells was confirmed by labeling with the PY20-PerCP-eFluor 710 pan-phosphotyrosine antibody followed by analysis via flow cytometry.
(§10) Enriching for cells displaying high-affinity phosphopeptide ligands
(§11) 100 μL of phosphorylated cells were mixed with 75 µL SH2-beads for 1 hour at 4 °C while rotating. After 1 hour, samples were placed on a magnetic rack, supernatant was removed and 1 mL SH2 buffer was added to each sample. This was rotated for 30 minutes at 4 °C to wash the beads.
(§12) After this wash, the beads were placed on a magnetic rack, the supernatant was removed and 50 µL […]
(§13) Preparing sequencing samples & deep sequencing
(§14) All SH2-selected samples and the input library control were resuspended in 50 µL MilliQ water, vortexed, and boiled for 10 minutes at 100 °C. The boiled lysate was used as the DNA template in a PCR reaction using the TruSeq-eCPX-Fwd and TruSeq-eCPX-Rev primers. The mixture resulting from this PCR was used directly into a second PCR to append Illumina sequencing adaptors and Supplementary Information - page 5 of 18 […]
(§15) unique 5’ and 3’ indices to each sample (D700 and D500 series primers). The resulting PCR mixtures […]

For assay [4], the target named is T3, SHP2 N-SH2^WT domain (Homo sapiens, UniProt Q06124).
T3 construct: SHP2 SH2 domains were cloned into a His6-SUMO-SH2-Avi construct; His6-SUMO (N, cleaved yes); made in house; host or cells: E. coli C43(DE3), co-expressed with BirA
T3 sequence (Q06124 6-102 limits assumed): T1 sequence (Q06124 6-102 T42A limits assumed) with A37T
In words: SH2 specificity profiling by bacterial peptide display (Human pTyr and pTyr-Var Libraries), N-SH2 WT. The class given is binding. The method, then:
as §1, §2, §3, §4, §5, §6, §7, §8, §9, §10, §11, §12, §13, §14, §15

Assay [5] addresses T4, SHP2 C-SH2^WT domain (Homo sapiens, UniProt Q06124).
T4 construct: SHP2 SH2 domains were cloned into a His6-SUMO-SH2-Avi construct; His6-SUMO (N, cleaved yes); made in house; host or cells: E. coli C43(DE3), co-expressed with BirA
T4 sequence (Q06124 112-216 limits assumed): T2 sequence (Q06124 112-216 E139D limits assumed) with D28E
Briefly: SH2 specificity profiling by bacterial peptide display (Human pTyr and pTyr-Var Libraries), C-SH2 WT. The class given is binding. As for the experimental part:
as §1, §2, §3, §4, §5, §6, §7, §8, §9, §10, §11, §12, §13, §14, §15

Assay [6] addresses ALDH2 pTyr 502 E504K peptide FGLQA-pY-TKVKT. Briefly: peptide display screen (pTyr-Var Library). The settings on record: N = 2 independent library transformations and screens; parent: est. 1.3; read off a plot.
Assay [7] concerns the target MERTK pTyr 872 I871V peptide QADVV-pY-VNTQL. Briefly: peptide display screen (pTyr-Var Library). The settings on record: N = 2 independent library transformations and screens; parent: est. 1.0; read off a plot.
The target of assay [8] is MLH1 pTyr 293 L292P peptide THPFP-pY-LSLEI. In words: peptide display screen (pTyr-Var Library). As to conditions: N = 2 independent library transformations and screens; parent: est. 2.9; read off a plot.
Setting [9] is: average enrichment score above cutoff of 3.2 (true binder).
[10] abbreviates: bacterial peptide display, frequency in enriched sample / input, average, Human pTyr Library N = 3, pTyr-Var Library N = 2.

Substitutions are numbered along the chain they refer to. No end group written: not given here.

Consider `CC[C@H](C)[C@H](NC(=O)[C@H](Cc1ccc(OP(=O)(O)O)cc1)NC(=O)[C@H](CC(N)=O)NC(=O)[C@H](CC(C)C)NC(=O)CNC(=O)[C@H](CC(N)=O)NC(=O)[C@H](CCC(=O)O)NC(=O)CCCCCNC(=S)Nc1ccc2c(c1)C(=O)OC21c2ccc(O)cc2Oc2cc(O)ccc21)C(=O)N[C@@H](CC(=O)O)C(=O)N[C@@H](CC(C)C)C(=O)N[C@@H](CC(=O)O)C(=O)N[C@@H](CC(C)C)C(N)=O`, for which, in assay [1], the “tighter binding of N-SH2^T42A compared to N-SH2^WT” value is 5 fold.
Regarding “ALDH2 pTyr 502 peptide FGLQA-pY-TEVKT E504K”, in assay [2] (parent: est. 1.3), the enrichment (fselected / finput) was 1.3.
On to “MERTK pTyr 872 peptide QADVI-pY-VNTQL I871T”, for which, in assay [2] (parent: est. 1.0), the enrichment (fselected / finput) came out at 1.5.
“MERTK pTyr 872 peptide QADVI-pY-VNTQL I871V”: the enrichment (fselected / finput) in assay [2] (parent: est. 1.0) amounted to 1.
With “MLH1 pTyr 293 peptide THPFL-pY-LSLEI L292P”, in assay [2] (parent: est. 2.9), the enrichment (fselected / finput) worked out at 1.4.
As to “SDRKGGSYTQAASSD (also: phosphorylated, site not given here) [1A01_HUMAN_344]”, the “>3.2 --> C-E139D-Ave” value in assay [3] (setting [9]) is listed as “FALSE (>3.2 -->)”. In addition, the “C-E139D-Ave (enrichment score)” value in assay [3] (setting [10]) came out at 0.8092. Further, the “>3.2 --> N-WT-Ave” value in assay [4] (setting [9]) is on record as “FALSE (>3.2 -->)”. In addition, in assay [4] (bacterial peptide display, enzymatically phosphorylated displayed peptides, SH2-coated beads, deep sequencing, frequency in enriched sample / input, average, Human pTyr Library N = 3, pTyr-Var Library N = 2), the “N-WT-Ave (enrichment score)” value came to 0.7728. The “>3.2 --> C-WT-Ave” value in assay [5] (setting [9]) was “FALSE (>3.2 -->)”. Moreover, the “C-WT-Ave (enrichment score)” value in assay [5] (setting [10]) amounted to 0.7595.
On to “Sm1; ALDH2 pTyr 502 peptide FGLQA-pY-TEVKT N-SH2: T42A; ALDH2 peptide: E504K”, for which the enrichment (fselected / finput) in assay [6] amounted to 1.8.
For “Sm1; MERTK pTyr 872 peptide QADVI-pY-VNTQL N-SH2: T42A; MERTK peptide: I871V”, the enrichment (fselected / finput) in assay [7] is 3.8.
For the compound “Sm1; MLH1 pTyr 293 peptide THPFL-pY-LSLEI N-SH2: T42A; MLH1 peptide: L292P”, the enrichment (fselected / finput) in assay [8] came out at 8.6.
